Assay results taken from US20150087584A1.

Molecular target: Helicoverpa armigera gut proteases (HGP) (Helicoverpa armigera)
Assay: cell-based or functional assay

inhibitory repeat domain IRD-7 of Capsicum annuum Pin-II proteinase inhibitors (CanPIs), sequence (O49146 other isoform, or with tags, fused parts or gaps): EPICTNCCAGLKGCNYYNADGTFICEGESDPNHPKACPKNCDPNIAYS

HGPI activity of the IRD alone at its IC50 concentration: 49%
inhibition of HGP activity (BApNA and Azocasein substrates): 40 to 45%
Substance: inhibitory repeat domain IRD-7 of Capsicum annuum Pin-II proteinase inhibitors (CanPIs) (from UniProt O49146 152-198)
